Measured values from patent publication US20260097076A1 (ELPIS BIOPHARMACEUTICALS, published 2026).

Experiments:
soluble recombinant TACI = target: T1, soluble recombinant TACI (UniProt O14836 1-165, limits assumed); assay: ELISA, recombinant TACI immobilized on 384 well plate
T1 construct: Immobilized on a 384 well plate; construct not described
T1 sequence (looked up): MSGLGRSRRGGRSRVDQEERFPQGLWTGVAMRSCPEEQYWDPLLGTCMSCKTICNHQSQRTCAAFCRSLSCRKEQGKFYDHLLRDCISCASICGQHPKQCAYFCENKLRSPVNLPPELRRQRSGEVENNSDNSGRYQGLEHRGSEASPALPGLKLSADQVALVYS
Method: Purified anti-TACI scFvs were subjected to ELISA binding assay. Recombinant TACI and negative protein were immobilized on the 384 well plate. 200 nM of anti-TACI scFv clones were serial diluted and tested for binding in the assay as described above.

[1] = target: T2, Transmembrane activator and CAML interactor (TACI) on cells (UniProt O14836 1-293, limits assumed); assay: flow cytometry on MM1S cells (endogenous TACI)
T2 construct: whole, on cells; also called tumor necrosis factor receptor superfamily member 13B (TNFRSF13B)
T2 sequence (looked up): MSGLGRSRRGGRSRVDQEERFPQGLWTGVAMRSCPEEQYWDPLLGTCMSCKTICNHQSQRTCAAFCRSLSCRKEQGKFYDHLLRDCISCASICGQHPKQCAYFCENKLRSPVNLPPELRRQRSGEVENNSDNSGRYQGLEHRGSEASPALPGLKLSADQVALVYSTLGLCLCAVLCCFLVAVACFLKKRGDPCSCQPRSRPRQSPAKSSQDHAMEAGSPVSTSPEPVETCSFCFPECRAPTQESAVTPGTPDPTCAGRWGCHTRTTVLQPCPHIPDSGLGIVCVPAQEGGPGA

[2] = target: T2, Transmembrane activator and CAML …; assay: flow cytometry on JVM2 cells (endogenous TACI)
Method: (§1) Cells were spun down at 1200 rpm for 6 minutes at 4° C. to remove primary antibodies. Cells were then washed once with 200 μL of full medium per well. Samples were detected with premixed anti-His Biotin Streptavidin Alexa fluor 647 by adding 100 μL of diluted secondary antibody and incubated at 4° C. for 30 minutes in the dark. Samples were spun down at 1200 rpm for 5 minutes at 4° C. and washed twice with 200 μL of 1×PBS per well. Reconstituted samples in 200 μL of 1×PBS and read on Attune NxT cytometer. Analysis was done by Attune NxT software plotting the overlaying the histogram of anti-BCMA scFvs binding onto both negative and target cell lines. […] The BCMA cell binding affinity for exemplary anti-BCMA antibodies (in scFv format) was also generated with serial diluted scFvs as described above.
(§2) Anti-TACI scFv binders have been identified through Anti-TACI supernatant FACS screening assay with JVM2, MM1.R and RPMI8226 cell lines as described in above supernatant FACS screening assay. 200 nM of purified scFvs were subjected into FACS binding assay with TACI negative cell lines K562, H929 and TACI expressing cancer cell lines of JVM2, MM1.R, RPMI8226. The assay procedure and data analysis were described in Example 1 above.

[3] = target: T2, Transmembrane activator and CAML …; assay: flow cytometry on RPMI8226 cells (endogenous TACI)
Method: as §1, §2

[4] = target: T2, Transmembrane activator and CAML …; assay: flow cytometry on MM1R cells (endogenous TACI)
Method: as §1, §2

EC50 [1]: 46.7 nM
EC50 [2]: 26.8 nM
EC50 [3]: 830 nM
EC50 [4]: 14 nM
B1: TC-03 (anti-TACI antibody in scFv format) (scFv, not shown: small tags and cut ends)
scFv: EVQLVESGGGLVQPGGSLRLSCATSGFTVNSDYMSWVRQSPEKGLEWVSFIYRGGSTYYADSVKGRFTVSRDTSKNTLYLQMNSLRVEDTAVYYCARGLGSSSDYWGQGTLVTVSSGGGGSGGGGSGGGGSSYELTQPHSVSESPGKTVTISCTRSSGSIANNYVQWYRHRPGSAPSTVIFEDDHRPSEVPDRFSGSIDSSSNSASLTISGLKTEDEADYYCQSYDGIDHYVFGTGTKLTVL
notes: Human scFv from mRNA display (live cell selections), VH-(G4S)3-VL
binding result (soluble recombinant TACI): no binding (tested: 200 nM, serial diluted)
